Assay results: paper PMC4534855 (2015)

B1: Flag-eIF2β, wild type [S. cerevisiae] / eIF2γ in yeast whole-cell extracts [yeast (endogenous in yeast whole-cell extracts)] (parent complex)
chain 1: MSSDLAAELGFDPALKKKKKTKKVIPDDFDAAVNGKENGSGDDLFAGLKKKKKKSKSVSADAEAEKEPTDDIAEALGELSLKKKKKKTKDSSVDAFEKELAKAGLDNVDAESKEGTPSANSSIQQEVGLPYSELLSRFFNILRTNNPELAGDRSGPKFRIPPPVCLRDGKKTIFSNIQDIAEKLHRSPEHLIQYLFAELGTSGSVDGQKRLVIKGKFQSKQMENVLRRYILEYVTCKTCKSINTELKREQSNRLFFMVCKSCGSTRSVSSIKTGFQATVGKRRRM
chain 2: MSDLQDQEPSIIINGNLEPVGEPDIVEETEVVAQETQETQDADKPKKKVAFTGLEEDGETEEEKRKREFEEGGGLPEQPLNPDFSKLNPLSAEIINRQATINIGTIGHVAHGKSTVVRAISGVQTVRFKDELERNITIKLGYANAKIYKCQEPTCPEPDCYRSFKSDKEISPKCQRPGCPGRYKLVRHVSFVDCPGHDILMSTMLSGAAVMDAALLLIAGNESCPQPQTSEHLAAIEIMKLKHVIILQNKVDLMREESALEHQKSILKFIRGTIADGAPIVPISAQLKYNIDAVNEFIVKTIPVPPRDFMISPRLIVIRSFDVNKPGAEIEDLKGGVAGGSILNGVFKLGDEIEIRPGIVTKDDKGKIQCKPIFSNIVSLFAEQNDLKFAVPGGLIGVGTKVDPTLCRADRLVGQVVGAKGHLPNIYTDIEINYFLLRRLLGVKTDGQKQAKVRKLEPNEVLMVNIGSTATGARVVAVKADMARLQLTSPACTEINEKIALSRRIEKHWRLIGWATIKKGTTLEPIA

Variants of: B1
Assay: co-immunoprecipitation with FLAG affinity resin, quantified western; yeast whole-cell extracts; three biological replicates; read off a plot
With chain 1 MSSDLAAELGFDPALKKKKKTKKVIPDDFDAAVNGKENGSGDDLFAGLKKKKKKSKSVSADAEAEKEPTDDIAEALGELSLKKKKKKTKDSSVDAFEKELAKAGLDNVDAESKEGTPSANSSIQQEVGLPYSELLSRFFNILRTNNPELAGDRSGPKFRIPPPVCLRDGKKTIFSNIQDIAEKLHRSPEHLIQYLFAELGTSGSVDGQKRLVIKGKAQSKAMENVLRRYILEYVTCKTCKSINTELKREQSNRLFFMVCKSCGSTRSVSSIKTGFQATVGKRRRM [chain 1 F217A, chain 1 Q221A] the response was ~0.82 eIF2γ:eIF2β. In the case of chain 1 MSSDLAAELGFDPALKKKKKTKKVIPDDFDAAVNGKENGSGDDLFAGLKKKKKKSKSVSADAEAEKEPTDDIAEALGELSLKKKKKKTKDSSVDAFEKELAKAGLDNVDAESKEGTPSANSSIQQEVGLPYSELLSRFFNILRTNNPELAGDRSGPKFRIPPPVCLRDGKKTIFSNIQDIAEKLHRSPEHLIQYLFAELGTAGSVDGQKRLVIAGKFQSKQMENVLRRYILEYVTCKTCKSINTELKREQSNRLFFMVCKSCGSTRSVSSIKTGFQATVGKRRRM [chain 1 S202A, chain 1 K214A], the response is reported as ~0.89 eIF2γ:eIF2β.
